Our source for the Km values is paper PMC5760735, “Isolation and Characterization of Key Genes that Promote Flavonoid Accumulation in Purple-leaf Tea (Camellia sinensis L.)” (Scientific Reports, 2018).

Common to all, as to settings: 5 mM UDP-glucose, phosphate buffer pH 7.5, 30 °C, 10 min
Substrate in the series “purified protein”: O=c1c(O)c(-c2cc(O)c(O)c(O)c2)oc2cc(O)cc(O)c12
The series is described as follows: purified protein.

Substrate in series [1]: O=c1c(O)c(-c2ccc(O)cc2)oc2cc(O)cc(O)c12
Nature of the series: glucosyltransferase assay of recombinant enzyme, HPLC. Format: biochemical, Camellia sinensis.

Substrate in series [2]: O=c1c(O)c(-c2ccc(O)c(O)c2)oc2cc(O)cc(O)c12
Described as above. The format is biochemical, Camellia sinensis.

B1: CsUGT72AM1 (Camellia sinensis) (protein)
chain: MDSSNSKPHVALLSSPGIGHLIPVLELRKRLVANHGFHVTVFSVTTTTAPPPKPKTATTTTTLDLVDIFELHVDISGLVNPNAPFVERVGVTMRESLPILRQAISGMDPRPTTLVVDIFGTDAMKIADEFDMSKYVFITTSAWVFAFCVFVPTLDEEVEGEYVDLQEPVKIPGCNPVRVEDLVDPMLDRRSQQYFEFLRTCKGYLSFDGVLVNTWEDLERPTLKAFRENGLLKQVLKAPIYPIGPLVKRVGSSGSRSELLEWLDLQPCQSVLYVSFGSAGTVSAKQITELAWGLELSQQRFIWVLRPPMEKGGPHDLNDCDDVANYLPDGFLSRTHKLGLVVPTWAPQEEILGHRSVGGFLSHGGWNSSLESILSGVPMIMWPLYAEQKMNAAMVVEELEVGVRVVQLSEVVEREEIAKFVRMVIEGREGKAMRTRVKELQCSGERALIENGSSYESMCELARDFEMKLKY
notes: cDNA in pMAL-c2X (MBP fusion), expressed in E. coli Novablue (DE3), purified
One may read the Km as the substrate concentration at which the rate is half of its maximum. For the protein B1, the Km in “purified protein” was 113.15 µM; in series [1] it was 71.81 µM; in series [2] it was 94.99 µM.
